This test concerns the target APOBEC-1 (apolipoprotein B mRNA editing catalytic subunit 1) (Homo sapiens (Human), UniProt P41238 1-236). Kind of test: yeast two-hybrid (MatchMaker; his- selection and lacZ filter lift), negative control.

Sequence of APOBEC-1 (apolipoprotein B mRNA editing catalytic subunit 1) (P41238 whole entry M80I): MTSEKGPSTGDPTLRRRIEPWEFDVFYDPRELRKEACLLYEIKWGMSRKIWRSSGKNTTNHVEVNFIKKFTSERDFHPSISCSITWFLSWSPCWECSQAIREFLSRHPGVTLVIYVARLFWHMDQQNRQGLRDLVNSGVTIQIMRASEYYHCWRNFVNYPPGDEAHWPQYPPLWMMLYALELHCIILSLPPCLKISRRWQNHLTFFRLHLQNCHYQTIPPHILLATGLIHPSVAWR
Text: The MatchMaker system includes specific protocols for setting up the yeast two hybrid selection, for verifying true His+, LacZ+ transformants and ruling out false positives. Both the selection scheme and verification of true positives follow the manufacturer's recommendations using cDNAs encoding APOBEC-and ACF (FIG. 9).

B1: lamin C (other, UniProt P02545-2 66-230, looked up)
chain: SEEVVSREVSGIKAAYEAELGDARKTLDSVAKERARLQLELSKVREEFKELKARNTKKEGDLIAAQARLKDLEALLNSKEAALSTALSEKRTLEGELHDLRGQVAKLEAALGEAKKQLQDEMLRRVDAENRLQTMKEELDFQKNIYSEELRETKRRHETRLVEID
notes: Negative-control two-hybrid fusion
B1: the binding result is “no binding”.

The record behind these values is US20050287648A1 (UNIVERSITY OF ROCHESTER, published 2005).
